8 molecules from patent publication US11278600B2, “Human alpha-galactosidase variants” (Codexis, Inc., priority 2014, dated 2022) can be followed below.

Format in all cases: biochemical
A short description of data set [1]: HTP-analysis of supernatants pretreated with base (MUGal hydrolysis). The note with it: activity of the variant/activity of Rd4BB (SEQ ID NO: 15); challenge at pH 9.65. The procedure, abridged: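 GLA variants were secreted by transformed INVSc1 yeast grown 66-84 h at 30° C. Supernatants were exposed to neutral-to-basic buffers (pH 7.0-9.7) at 37° C for 1-18 h, then assayed with MUGal in acidic citrate/McIlvaine buffer, with fluorescence read after quenching.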

A short description of data set [2]: HTP-analysis of yeast culture supernatants, no challenge (MUGal hydrolysis). The note with it: activity of the variant/activity of Rd4BB (SEQ ID NO: 15). In a few lines:
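Activity read as 4-methylumbelliferyl α-D-galactopyranoside hydrolysis: fluorescence (355/448 nm) after sodium carbonate stop, following 30-180 min at 37° C with 2 mM MUGal stock at pH 4.6–4.8. Enzyme source is unchallenged culture supernatant of INVSc1 yeast expressing GLA variants, grown 66-84 h at 30° C.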

The nature of data set [3]: HTP-analysis of supernatants pretreated with acid (MUGal hydrolysis). The following applies: activity of the variant/activity of Rd4BB (SEQ ID NO: 15); challenge at pH 3.7. In a few lines:
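Supernatants from INVSc1 yeast secreting GLA variants were challenged at 37° C. for 1-3 h in McIlvaine buffer at pH 3.3-4.3. Residual activity was then measured on 4 mM MUGal substrate stock at pH 4.8 with citrate buffer pH 4.3, over 30-180 min at 37° C. Reactions were quenched with sodium carbonate and read by fluorescence (Ex 355/Em 448 nm).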

B1: 475 (protein)
chain: LDNGLARTPTMGWLHWERFMCNLDCQEEPDSCISEKLFMEMAERMVSEGWKDAGYEYLCIDDCWMAPQRDSEGRLQADPQRFPHGIRQLANYVHSKGLKLGIYADVGNKTCAGFPGSFGYYDIDAQTFADWGVDLLKFDGCYCDSLENLADGYKHMSLALNRTGRSIVYSCEWPLYMWPFQKPNYTEIRQYCNHWRNFADIDDSWKSIKSILDWTSFNQERIVDVAGPGGWNDPDMLVIGNFGLSWNQQVTQMALWAIMAAPLFMSNDLRHISPQAKALLQDKDVIAINQDPLGKQGYQLRQGDNFEVWERPLSGLAWAVAMINRQEIGGPRSYTIAVASLGKGVACNPACFITQLLPVKRKLGFYEWTSRLRSHINPTGTVLLQLENDMQMSLKDLL
modifications: Synthetic Polypeptide sequence of Variant No. 475 of mature Human GLA
In the case of B1, the “Relative Activity of GLA Variants After Challenge at pH 9.65” value (“Relative Activity … at pH 9.65” below) in data set [1] is on record as “+ (0.5 to 1.5 relative activity over Rd4BB (SEQ ID NO: 15))”. The “Relative Activity of GLA Variants After No Challenge (NC)” value in data set [2] was “+ (0.5 to 1.5 relative activity over Rd4BB (SEQ ID NO: 15))”. In addition, in data set [3], the “Relative Activity of GLA Variants After Challenge at pH 3.7” value (shortened to “Relative Activity … at pH 3.7”) was “+ (0.5 to 1.5 relative activity over Rd4BB (SEQ ID NO: 15))”.

B2: 481 (protein)
chain: LDNGLARTPTMGWLHWERFMCNLDCQEEPDSCISEKLFMEMAERMVSEGWKDAGYEYLCIDDCWMAPQRDSEGRLQADPQRFPHGIRQLANYVHSKGLKLGIYADVGNKTCAGFPGSFGYYDIDAQTFADWGVDLLKFDGCYCDSLENLADGYKHMSLALNRTGRSIVYSCEWPLYMWPFQKPNYTEIRQYCNHWRNFADIDDSWKSIKSILDWTSFNQERIVDVAGPGGWNDPDMLVIGNFGLSWNQQVTQMALWAIMAAPLFMSNDLRHISPQAKALLQDKDVIAINQDPLGKQGYQLRQGDNFEVWERPLSGLAWAVAMINRQEIGGPRSYTIAVASLGKGVACNPACFITQLLPVKRKLGFYEWTSRLRSHINPTGTVLLQLENTGQMSLKDLL
modifications: Synthetic Polypeptide sequence of Variant No. 481 of mature Human GLA
B2: in data set [1], the “Relative Activity … at pH 9.65” value is listed as “+ (0.5 to 1.5 relative activity over Rd4BB (SEQ ID NO: 15))”. In addition, the “Relative Activity of GLA Variants After No Challenge (NC)” value in data set [2] is given as “+ (0.5 to 1.5 relative activity over Rd4BB (SEQ ID NO: 15))”. Further, the “Relative Activity … at pH 3.7” value in data set [3] was “+ (0.5 to 1.5 relative activity over Rd4BB (SEQ ID NO: 15))”.

B3: 476 (protein)
chain: LDNGLARTPTMGWLHWERFMCNLDCQEEPDSCISEKLFMEMAERMVSEGWKDAGYEYLCIDDCWMAPQRDSEGRLQADPQRFPHGIRQLANYVHSKGLKLGIYADVGNKTCAGFPGSFGYYDIDAQTFADWGVDLLKFDGCYCDSLENLADGYKHMSLALNRTGRSIVYSCEWPLYMWPFQKPNYTEIRQYCNHWRNFADIDDSWKSIKSILDWTSFNQERIVDVAGPGGWNDPDMLVIGNFGLSWNQQVTQMALWAIMAAPLFMSNDLRHISPQAKALLQDKDVIAINQDPLGKQGYQLRQGDNFEVWERPLSGLAWAVAMINRQEIGGPRSYTIAVASLGKGVACNPACFITQLLPVKRKLGFYEWTSRLRSHINPTGTVLLQLENTEQMSLKDLL
modifications: Synthetic Polypeptide sequence of Variant No. 476 of mature Human GLA
In the case of B3, the “Relative Activity … at pH 9.65” value in data set [1] is “+ (0.5 to 1.5 relative activity over Rd4BB (SEQ ID NO: 15))”. In data set [2], the “Relative Activity of GLA Variants After No Challenge (NC)” value is recorded as “+ (0.5 to 1.5 relative activity over Rd4BB (SEQ ID NO: 15))”. In addition, in data set [3], the “Relative Activity … at pH 3.7” value is “+ (0.5 to 1.5 relative activity over Rd4BB (SEQ ID NO: 15))”.

B4: 477 (protein)
chain: LDNGLARTPTMGWLHWERFMCNLDCQEEPDSCISEKLFMEMAERMVSEGWKDAGYEYLCIDDCWMAPQRDSEGRLQADPQRFPHGIRQLANYVHSKGLKLGIYADVGNKTCAGFPGSFGYYDIDAQTFADWGVDLLKFDGCYCDSLENLADGYKHMSLALNRTGRSIVYSCEWPLYMWPFQKPNYTEIRQYCNHWRNFADIDDSWKSIKSILDWTSFNQERIVDVAGPGGWNDPDMLVIGNFGLSWNQQVTQMALWAIMAAPLFMSNDLRHISPQAKALLQDKDVIAINQDPLGKQGYQLRQGDNFEVWERPLSGLAWAVAMINRQEIGGPRSYTIAVASLGKGVACNPACFITQLLPVKRKLGFYEWTSRLRSHINPTGTVLWQLENTMQMSLKDLL
modifications: Synthetic Polypeptide sequence of Variant No. 477 of mature Human GLA
B4: the “Relative Activity … at pH 9.65” value in data set [1] is “+ (0.5 to 1.5 relative activity over Rd4BB (SEQ ID NO: 15))”. In data set [2], the “Relative Activity of GLA Variants After No Challenge (NC)” value was “+ (0.5 to 1.5 relative activity over Rd4BB (SEQ ID NO: 15))”. Further, the “Relative Activity … at pH 3.7” value in data set [3] was “− (<0.5 relative activity over Rd4BB (SEQ ID NO: 15))”.

B5: 478 (protein)
chain: LDNGLARTPTMGWLHWERFMCNLDCQEEPDSCISEKLFMEMAERMVSEGWKDAGYEYLCIDDCWMAPQRDSEGRLQADPQRFPHGIRQLANYVHSKGLKLGIYADVGNKTCAGFPGSFGYYDIDAQTFADWGVDLLKFDGCYCDSLENLADGYKHMSLALNRTGRSIVYSCEWPLYMWPFQKPNYTEIRQYCNHWRNFADIDDSWKSIKSILDWTSFNQERIVDVAGPGGWNDPDMLVIGNFGLSWNQQVTQMALWAIMAAPLFMSNDLRHISPQAKALLQDKDVIAINQDPLGKQGYQLRQGDNFEVWERPLSGLAWAVAMINRQEIGGPRSYTIAVASLGKGVACNPACFITQLLPVKRKLGFYEWTSRLRSHINPTGTVLLQLENTMQSSLKDLL
modifications: Synthetic Polypeptide sequence of Variant No. 478 of mature Human GLA
B5: the “Relative Activity … at pH 9.65” value in data set [1] is recorded as “+ (0.5 to 1.5 relative activity over Rd4BB (SEQ ID NO: 15))”. The “Relative Activity of GLA Variants After No Challenge (NC)” value in data set [2] is listed as “+ (0.5 to 1.5 relative activity over Rd4BB (SEQ ID NO: 15))”. Also, the “Relative Activity … at pH 3.7” value in data set [3] is “++ (>1.5 to 2.5 relative activity over Rd4BB (SEQ ID NO: 15))”.

B6: 480 (protein)
chain: LDNGLARTPTMGWLHWERFMCNLDCQEEPDSCISEKLFMEMAERMVSEGWKDAGYEYLCIDDCWMAPQRDSEGRLQADPQRFPHGIRQLANYVHSKGLKLGIYADVGNKTCAGFPGSFGYYDIDAQTFADWGVDLLKFDGCYCDSLENLADGYKHMSLALNRTGRSIVYSCEWPLYMWPFQKPNYTEIRQYCNHWRNFADIDDSWKSIKSILDWTSFNQERIVDVAGPGGWNDPDMLVIGNFGLSWNQQVTQMALWAIMAAPLFMSNDLRHISPQAKALLQDKDVIAINQDPLGKQGYQLRQGDNFEVWERPLSGLAWAVAMINRQEIGGPRSYTIAVASLGKGVACNPACFITQLLPVKRKLGFYEWTSRLRSHINPTGTVLLQLENTRQMSLKDLL
modifications: Synthetic Polypeptide sequence of Variant No. 480 of mature Human GLA
For B6, the “Relative Activity … at pH 9.65” value in data set [1] is reported as “+ (0.5 to 1.5 relative activity over Rd4BB (SEQ ID NO: 15))”. The “Relative Activity of GLA Variants After No Challenge (NC)” value in data set [2] was “+ (0.5 to 1.5 relative activity over Rd4BB (SEQ ID NO: 15))”. Moreover, the “Relative Activity … at pH 3.7” value in data set [3] is “+ (0.5 to 1.5 relative activity over Rd4BB (SEQ ID NO: 15))”.

B7: 479 (protein)
chain: LDNGLARTPTMGWLHWERFMCNLDCQEEPDSCISEKLFMEMAERMVSEGWKDAGYEYLCIDDCWMAPQRDSEGRLQADPQRFPHGIRQLANYVHSKGLKLGIYADVGNKTCAGFPGSFGYYDIDAQTFADWGVDLLKFDGCYCDSLENLADGYKHMSLALNRTGRSIVYSCEWPLYMWPFQKPNYTEIRQYCNHWRNFADIDDSWKSIKSILDWTSFNQERIVDVAGPGGWNDPDMLVIGNFGLSWNQQVTQMALWAIMAAPLFMSNDLRHISPQAKALLQDKDVIAINQDPLGKQGYQLRQGDNFEVWERPLSGLAWAVAMINRQEIGGPRSYTIAVASLGKGVACNPACFITQLLPVKRKLGFYEWTSRLRSHINPTGTVLLQLENTMQFSLKDLL
modifications: Synthetic Polypeptide sequence of Variant No. 479 of mature Human GLA
Regarding B7, the “Relative Activity … at pH 9.65” value in data set [1] is “+ (0.5 to 1.5 relative activity over Rd4BB (SEQ ID NO: 15))”. Further, the “Relative Activity of GLA Variants After No Challenge (NC)” value in data set [2] is “+ (0.5 to 1.5 relative activity over Rd4BB (SEQ ID NO: 15))”. Besides, in data set [3], the “Relative Activity … at pH 3.7” value is “+ (0.5 to 1.5 relative activity over Rd4BB (SEQ ID NO: 15))”.

B8: 369 (protein)
chain: LDNGLARTPTMGWLHWERFMCNLDCQEEPDSCISEKLFMEMAESMVSEGWKDAGYEYLCIDDCWMAPQRDSEGRLQADPQRFPHGIRQLANYVHSKGLKLGIYADVGNKTCAGFPGSFGYYDIDAQTFADWGVDLLKFDGCYCDSLENLADGYKHMSLALNRTGRSIVYSCEWPLYMWPFQKPNYTEIRQYCNHWRNFADIDDSWKSIKSILDWTSRNQERIVDVAGPGGWNDPDMLVIGNFGLSWDQQVTQMALWAIMAAPLFMSNDLRHISPQAKALLQDKDVIAINQDPLGKQGYQLRKGDNFEVWERPLSGDAWAVAIINRQEIGGPRSYTIPVASLGKGVACNPACFITQLLPVKRQLGFYNWTSRLKSHINPTGTVLLQLENTMQMSLKDLL
modifications: Synthetic Polypeptide sequence of Variant No. 369 of mature Human GLA
Take B8: in data set [1], the “Relative Activity … at pH 9.65” value is recorded as “− (<0.5 relative activity over Rd4BB (SEQ ID NO: 15))”. Further, the “Relative Activity of GLA Variants After No Challenge (NC)” value in data set [2] is “+ (0.5 to 1.5 relative activity over Rd4BB (SEQ ID NO: 15))”. Besides, the “Relative Activity … at pH 3.7” value in data set [3] is listed as “+ (0.5 to 1.5 relative activity over Rd4BB (SEQ ID NO: 15))”.
